Results taken from patent US20240209062A1 (INVETX, published 2024).

Molecular target: T1, feline FcRn (soluble portion of large subunit p51 isoform X1 with C-terminal 6xHis-tag, co-expressed with … (feline, UniProt Q5MGS7 21-118))
T1 construct: Heterodimer made by co-expression in CHO cells, purified on HisTrap FF; also called FcRn complex
Assay: SPR, Biacore T200, IgG captured on Protein L chip, feline FcRn flowed over, pH 5.9, 1:1 fit
Procedure: The feline FcRn binding experiments at pH 5.9 were completed on a BIACORE™ T200 instrument. A Series S Protein L Sensor chip (Cytiva, Cat. No. BR29205137) was used to capture the antibody variants via the kappa (κ) light chain. The feline variants were captured onto the protein L chip at a flow rate of 10 μL/min for 60 seconds. 1×PBX-P+(Cytiva Cat 28995084) was adjusted to pH 5.9 for the running buffer. The feline FcRn was flowed over the sensor chip at 30 μL/min for 120 seconds contact time and 600 seconds dissociation time. Regeneration of the flow cells was completed by flowing over 10 mM glycine, pH 1.7 at 30 μL/min for 30 seconds. The data were evaluated by the BIACORE™T200 Evaluation software v3.2.1 by fitting to a 1:1 kinetic interaction model.

T1 sequence (chain, as listed by the source limits assumed, chain 1 of 2): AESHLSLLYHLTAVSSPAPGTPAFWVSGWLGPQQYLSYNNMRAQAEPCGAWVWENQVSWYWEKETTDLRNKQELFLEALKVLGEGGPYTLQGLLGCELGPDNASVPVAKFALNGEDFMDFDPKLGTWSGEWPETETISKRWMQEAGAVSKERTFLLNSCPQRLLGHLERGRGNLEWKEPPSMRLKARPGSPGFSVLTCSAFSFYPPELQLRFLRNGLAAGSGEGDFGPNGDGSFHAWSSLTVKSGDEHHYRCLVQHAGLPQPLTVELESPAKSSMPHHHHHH
T1 sequence (Q5MGS7 other isoform, or with tags, fused parts or gaps limits assumed, chain 2 of 2): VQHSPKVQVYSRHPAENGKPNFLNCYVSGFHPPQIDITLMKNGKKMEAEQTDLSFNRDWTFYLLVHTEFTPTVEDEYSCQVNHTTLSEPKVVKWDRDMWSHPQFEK

| Binder | Kd | koff | kon |
| --- | --- | --- | --- |
| IgG with feline IgG1a Fc variant S252M, R301V (antibody, IgG1a constant domain with MALA mutations (M234A, L244A as printed); variable domains from WO 2023/97275) heavy: DVQLVESGGDLVKPGGSLRLTCVASGLSLTSDSMSWVRQAPGKGLQWVSTLWSNRGTYYTDSVKGRFTISKDNAENTLYLQMNNLKTEDTATYYCASIYYYEADYLHWYFDFWGQGALVTVSSASTTAPSVFPLAPSCGTTSGATVALACLVLGYFPEPVTVSWNSGALTSGVHTFPAVLQASGLYSLSSMVTVPSSRWLSDTFTCNVAHPPSNTKVDKTVRKTDHPPGPKPCDCPKCPPPEAAGGPSIFIFPPKPKDTLMISRTPEVTCLVVDLGPDDSDVQITWFVDNTQVYTAKTSPREEQFNSTYVVVSVLPILHQDWLKGKEFKCKVNSKSLPSPIERTISKAKGQPHEPQVYVLPPAQEELSRNKVSVTCLIKSFHPPDIAVEWEITGQPEPENNYRTTPPQLDSDGTYFVYSKLSVDRSHWQRGNTYTCSVSHEALHSHHTQKSLTQSPG light: EIQMTQSPTSLSASVGDRVTITCRASEGIANNLSWYQQTPGKAPKLLIYATSNLHSGVPSRFSGSGSGTDFTLTISSLQPEDFATYYCQQGFKWPLTFGGGTKLEITRSDAQPSVFLFQPSLDELHTGSASIVCILNDFYPKEVNVKWKVDGVVQNKGIQESTTEQNSKDSTYSLSSTLTMSSTEYQSHEKFSCEVTHKSLASTLVKSFNRSECQRE | 278 nM | 0.206 s⁻¹ | 745000 M⁻¹ s⁻¹ |
| IgG with feline IgG1a Fc variant S252M, T286D (antibody, IgG1a constant domain with MALA mutations (M234A, L244A as printed); variable domains from WO 2023/97275) heavy: DVQLVESGGDLVKPGGSLRLTCVASGLSLTSDSMSWVRQAPGKGLQWVSTLWSNRGTYYTDSVKGRFTISKDNAENTLYLQMNNLKTEDTATYYCASIYYYEADYLHWYFDFWGQGALVTVSSASTTAPSVFPLAPSCGTTSGATVALACLVLGYFPEPVTVSWNSGALTSGVHTFPAVLQASGLYSLSSMVTVPSSRWLSDTFTCNVAHPPSNTKVDKTVRKTDHPPGPKPCDCPKCPPPEAAGGPSIFIFPPKPKDTLMISRTPEVTCLVVDLGPDDSDVQITWFVDNTQVYDAKTSPREEQFNSTYRVVSVLPILHQDWLKGKEFKCKVNSKSLPSPIERTISKAKGQPHEPQVYVLPPAQEELSRNKVSVTCLIKSFHPPDIAVEWEITGQPEPENNYRTTPPQLDSDGTYFVYSKLSVDRSHWQRGNTYTCSVSHEALHSHHTQKSLTQSPG light: EIQMTQSPTSLSASVGDRVTITCRASEGIANNLSWYQQTPGKAPKLLIYATSNLHSGVPSRFSGSGSGTDFTLTISSLQPEDFATYYCQQGFKWPLTFGGGTKLEITRSDAQPSVFLFQPSLDELHTGSASIVCILNDFYPKEVNVKWKVDGVVQNKGIQESTTEQNSKDSTYSLSSTLTMSSTEYQSHEKFSCEVTHKSLASTLVKSFNRSECQRE | 123 nM | 0.105 s⁻¹ | 850000 M⁻¹ s⁻¹ |
| IgG with feline IgG1a Fc variant S252M, R392D (antibody, IgG1a constant domain with MALA mutations (M234A, L244A as printed); variable domains from WO 2023/97275) heavy: DVQLVESGGDLVKPGGSLRLTCVASGLSLTSDSMSWVRQAPGKGLQWVSTLWSNRGTYYTDSVKGRFTISKDNAENTLYLQMNNLKTEDTATYYCASIYYYEADYLHWYFDFWGQGALVTVSSASTTAPSVFPLAPSCGTTSGATVALACLVLGYFPEPVTVSWNSGALTSGVHTFPAVLQASGLYSLSSMVTVPSSRWLSDTFTCNVAHPPSNTKVDKTVRKTDHPPGPKPCDCPKCPPPEAAGGPSIFIFPPKPKDTLMISRTPEVTCLVVDLGPDDSDVQITWFVDNTQVYTAKTSPREEQFNSTYRVVSVLPILHQDWLKGKEFKCKVNSKSLPSPIERTISKAKGQPHEPQVYVLPPAQEELSRNKVSVTCLIKSFHPPDIAVEWEITGQPEPENNYDTTPPQLDSDGTYFVYSKLSVDRSHWQRGNTYTCSVSHEALHSHHTQKSLTQSPG light: EIQMTQSPTSLSASVGDRVTITCRASEGIANNLSWYQQTPGKAPKLLIYATSNLHSGVPSRFSGSGSGTDFTLTISSLQPEDFATYYCQQGFKWPLTFGGGTKLEITRSDAQPSVFLFQPSLDELHTGSASIVCILNDFYPKEVNVKWKVDGVVQNKGIQESTTEQNSKDSTYSLSSTLTMSSTEYQSHEKFSCEVTHKSLASTLVKSFNRSECQRE | 268 nM | 0.229 s⁻¹ | 856000 M⁻¹ s⁻¹ |
| IgG with feline IgG1a Fc variant S252M, R301Y (antibody, IgG1a constant domain with MALA mutations (M234A, L244A as printed); variable domains from WO 2023/97275) heavy: DVQLVESGGDLVKPGGSLRLTCVASGLSLTSDSMSWVRQAPGKGLQWVSTLWSNRGTYYTDSVKGRFTISKDNAENTLYLQMNNLKTEDTATYYCASIYYYEADYLHWYFDFWGQGALVTVSSASTTAPSVFPLAPSCGTTSGATVALACLVLGYFPEPVTVSWNSGALTSGVHTFPAVLQASGLYSLSSMVTVPSSRWLSDTFTCNVAHPPSNTKVDKTVRKTDHPPGPKPCDCPKCPPPEAAGGPSIFIFPPKPKDTLMISRTPEVTCLVVDLGPDDSDVQITWFVDNTQVYTAKTSPREEQFNSTYYVVSVLPILHQDWLKGKEFKCKVNSKSLPSPIERTISKAKGQPHEPQVYVLPPAQEELSRNKVSVTCLIKSFHPPDIAVEWEITGQPEPENNYRTTPPQLDSDGTYFVYSKLSVDRSHWQRGNTYTCSVSHEALHSHHTQKSLTQSPG light: EIQMTQSPTSLSASVGDRVTITCRASEGIANNLSWYQQTPGKAPKLLIYATSNLHSGVPSRFSGSGSGTDFTLTISSLQPEDFATYYCQQGFKWPLTFGGGTKLEITRSDAQPSVFLFQPSLDELHTGSASIVCILNDFYPKEVNVKWKVDGVVQNKGIQESTTEQNSKDSTYSLSSTLTMSSTEYQSHEKFSCEVTHKSLASTLVKSFNRSECQRE | 258 nM | 0.18 s⁻¹ | 695000 M⁻¹ s⁻¹ |
| IgG with feline IgG1a Fc variant S252M, R392E (antibody, IgG1a constant domain with MALA mutations (M234A, L244A as printed); variable domains from WO 2023/97275) heavy: DVQLVESGGDLVKPGGSLRLTCVASGLSLTSDSMSWVRQAPGKGLQWVSTLWSNRGTYYTDSVKGRFTISKDNAENTLYLQMNNLKTEDTATYYCASIYYYEADYLHWYFDFWGQGALVTVSSASTTAPSVFPLAPSCGTTSGATVALACLVLGYFPEPVTVSWNSGALTSGVHTFPAVLQASGLYSLSSMVTVPSSRWLSDTFTCNVAHPPSNTKVDKTVRKTDHPPGPKPCDCPKCPPPEAAGGPSIFIFPPKPKDTLMISRTPEVTCLVVDLGPDDSDVQITWFVDNTQVYTAKTSPREEQFNSTYRVVSVLPILHQDWLKGKEFKCKVNSKSLPSPIERTISKAKGQPHEPQVYVLPPAQEELSRNKVSVTCLIKSFHPPDIAVEWEITGQPEPENNYETTPPQLDSDGTYFVYSKLSVDRSHWQRGNTYTCSVSHEALHSHHTQKSLTQSPG light: EIQMTQSPTSLSASVGDRVTITCRASEGIANNLSWYQQTPGKAPKLLIYATSNLHSGVPSRFSGSGSGTDFTLTISSLQPEDFATYYCQQGFKWPLTFGGGTKLEITRSDAQPSVFLFQPSLDELHTGSASIVCILNDFYPKEVNVKWKVDGVVQNKGIQESTTEQNSKDSTYSLSSTLTMSSTEYQSHEKFSCEVTHKSLASTLVKSFNRSECQRE | 186 nM | 0.177 s⁻¹ | 965000 M⁻¹ s⁻¹ |

Second part, the binder after the results:

| Kd | koff | kon | Binder |
| --- | --- | --- | --- |
| 101 nM | 0.0719 s⁻¹ | 715000 M⁻¹ s⁻¹ | IgG with feline IgG1a Fc variant S252M, T286E (antibody, IgG1a constant domain with MALA mutations (M234A, L244A as printed); variable domains from WO 2023/97275) heavy: DVQLVESGGDLVKPGGSLRLTCVASGLSLTSDSMSWVRQAPGKGLQWVSTLWSNRGTYYTDSVKGRFTISKDNAENTLYLQMNNLKTEDTATYYCASIYYYEADYLHWYFDFWGQGALVTVSSASTTAPSVFPLAPSCGTTSGATVALACLVLGYFPEPVTVSWNSGALTSGVHTFPAVLQASGLYSLSSMVTVPSSRWLSDTFTCNVAHPPSNTKVDKTVRKTDHPPGPKPCDCPKCPPPEAAGGPSIFIFPPKPKDTLMISRTPEVTCLVVDLGPDDSDVQITWFVDNTQVYEAKTSPREEQFNSTYRVVSVLPILHQDWLKGKEFKCKVNSKSLPSPIERTISKAKGQPHEPQVYVLPPAQEELSRNKVSVTCLIKSFHPPDIAVEWEITGQPEPENNYRTTPPQLDSDGTYFVYSKLSVDRSHWQRGNTYTCSVSHEALHSHHTQKSLTQSPG light: EIQMTQSPTSLSASVGDRVTITCRASEGIANNLSWYQQTPGKAPKLLIYATSNLHSGVPSRFSGSGSGTDFTLTISSLQPEDFATYYCQQGFKWPLTFGGGTKLEITRSDAQPSVFLFQPSLDELHTGSASIVCILNDFYPKEVNVKWKVDGVVQNKGIQESTTEQNSKDSTYSLSSTLTMSSTEYQSHEKFSCEVTHKSLASTLVKSFNRSECQRE |
| 31.5 nM | 0.0224 s⁻¹ | 712000 M⁻¹ s⁻¹ | IgG with feline IgG1a Fc variant S252Y, I377L (antibody, Printed '1377L' read as I377L; IgG1a constant domain with MALA mutations (M234A, L244A as printed); variable domains from WO 2023/97275; also called S252Y, 1377L) heavy: DVQLVESGGDLVKPGGSLRLTCVASGLSLTSDSMSWVRQAPGKGLQWVSTLWSNRGTYYTDSVKGRFTISKDNAENTLYLQMNNLKTEDTATYYCASIYYYEADYLHWYFDFWGQGALVTVSSASTTAPSVFPLAPSCGTTSGATVALACLVLGYFPEPVTVSWNSGALTSGVHTFPAVLQASGLYSLSSMVTVPSSRWLSDTFTCNVAHPPSNTKVDKTVRKTDHPPGPKPCDCPKCPPPEAAGGPSIFIFPPKPKDTLYISRTPEVTCLVVDLGPDDSDVQITWFVDNTQVYTAKTSPREEQFNSTYRVVSVLPILHQDWLKGKEFKCKVNSKSLPSPIERTISKAKGQPHEPQVYVLPPAQEELSRNKVSVTCLIKSFHPPDLAVEWEITGQPEPENNYRTTPPQLDSDGTYFVYSKLSVDRSHWQRGNTYTCSVSHEALHSHHTQKSLTQSPG light: EIQMTQSPTSLSASVGDRVTITCRASEGIANNLSWYQQTPGKAPKLLIYATSNLHSGVPSRFSGSGSGTDFTLTISSLQPEDFATYYCQQGFKWPLTFGGGTKLEITRSDAQPSVFLFQPSLDELHTGSASIVCILNDFYPKEVNVKWKVDGVVQNKGIQESTTEQNSKDSTYSLSSTLTMSSTEYQSHEKFSCEVTHKSLASTLVKSFNRSECQRE |
| 36.1 nM | 0.0268 s⁻¹ | 742000 M⁻¹ s⁻¹ | IgG with feline IgG1a Fc variant S252Y (antibody, IgG1a constant domain with MALA mutations (M234A, L244A as printed); variable domains from WO 2023/97275) heavy: DVQLVESGGDLVKPGGSLRLTCVASGLSLTSDSMSWVRQAPGKGLQWVSTLWSNRGTYYTDSVKGRFTISKDNAENTLYLQMNNLKTEDTATYYCASIYYYEADYLHWYFDFWGQGALVTVSSASTTAPSVFPLAPSCGTTSGATVALACLVLGYFPEPVTVSWNSGALTSGVHTFPAVLQASGLYSLSSMVTVPSSRWLSDTFTCNVAHPPSNTKVDKTVRKTDHPPGPKPCDCPKCPPPEAAGGPSIFIFPPKPKDTLYISRTPEVTCLVVDLGPDDSDVQITWFVDNTQVYTAKTSPREEQFNSTYRVVSVLPILHQDWLKGKEFKCKVNSKSLPSPIERTISKAKGQPHEPQVYVLPPAQEELSRNKVSVTCLIKSFHPPDIAVEWEITGQPEPENNYRTTPPQLDSDGTYFVYSKLSVDRSHWQRGNTYTCSVSHEALHSHHTQKSLTQSPG light: EIQMTQSPTSLSASVGDRVTITCRASEGIANNLSWYQQTPGKAPKLLIYATSNLHSGVPSRFSGSGSGTDFTLTISSLQPEDFATYYCQQGFKWPLTFGGGTKLEITRSDAQPSVFLFQPSLDELHTGSASIVCILNDFYPKEVNVKWKVDGVVQNKGIQESTTEQNSKDSTYSLSSTLTMSSTEYQSHEKFSCEVTHKSLASTLVKSFNRSECQRE |
